The nature of data set [1]: FITC-FA fluorescence microscopy of stable cell lines, 24 h. To be noted: glycan lost; control: FOLR1 WT stable cells.
Data set [2] can be described thus: qRT-PCR and label-free quantitative proteomics of FOLR1. As to conditions: glycan changed form; control: matched control stable cells. Background: Real-time PCR tracks product formation cycle by cycle.

B1: folate receptor alpha (FOLR1): N69A (protein)
parent chain: MAQRMTTQLLLLLVWVAVVGEAQTRIAWARTELLNVCMNAKHHKEKPGPEDKLHEQCRPWRKNACCSTNTSQEAHKDVSYLYRFNWNHCGEMAPACKRHFIQDTCLYECSPNLGPWIQQVDQSWRKERVLNVPLCKEDCEQWWEDCRTSYTCKSNWHKGWNWTSGFNKCAVGAACQPFHFYFPTPTVLCNEIWTHSYKVSNYSRGSGRCIQMWFDPAQGNPNEEVARFYAAAMSGAGPWAAWPFLLSLALMLLWLLS
Regarding B1, in data set [1], the “other: folate uptake” value is “decreases”.

B2: folate receptor alpha (FOLR1): N201A (protein)
parent chain: B1 parent chain
As for B2, the “other: folate uptake” value in data set [1] was “decreases”.

B3: folate receptor alpha (FOLR1): N161A (protein)
parent chain: B1 parent chain
For the protein B3, the “other: folate uptake” value in data set [1] is “decreases”.

B4: folate receptor alpha (FOLR1): FUT8 overexpression (protein)
parent chain: B1 parent chain
As for B4, in data set [2], the expression_or_secretion result was “no change”.

B5: folate receptor alpha (FOLR1): shFUT8 (protein)
parent chain: B1 parent chain
Take B5: the expression_or_secretion result in data set [2] is given as “no change”.
